Measured values: patent US20250066499A1 (SUNSHINE GUOJIAN PHARMACEUTICAL SHANGHAI, published 2025)
Like-named read-outs stand apart in the source and are kept apart here.

T1: CD73 protein on the surface of tumor cells (human, UniProt P21589 27-549)
T1 sequence (looked up): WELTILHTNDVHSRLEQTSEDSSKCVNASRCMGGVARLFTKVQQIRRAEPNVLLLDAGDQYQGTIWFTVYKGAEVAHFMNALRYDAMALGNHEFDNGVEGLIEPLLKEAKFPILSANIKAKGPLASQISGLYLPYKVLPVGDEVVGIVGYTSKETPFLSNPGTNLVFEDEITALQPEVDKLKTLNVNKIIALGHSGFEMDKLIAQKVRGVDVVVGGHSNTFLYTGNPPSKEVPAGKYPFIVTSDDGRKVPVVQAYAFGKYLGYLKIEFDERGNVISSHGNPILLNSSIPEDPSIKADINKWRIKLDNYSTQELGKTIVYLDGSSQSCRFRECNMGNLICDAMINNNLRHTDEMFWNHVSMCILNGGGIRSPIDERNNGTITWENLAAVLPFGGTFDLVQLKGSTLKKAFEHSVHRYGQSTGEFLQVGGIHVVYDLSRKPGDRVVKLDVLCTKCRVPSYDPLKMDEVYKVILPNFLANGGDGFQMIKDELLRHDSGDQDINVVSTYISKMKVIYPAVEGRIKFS

T2: human CD73-His protein (human, UniProt P21589 27-549)
T2 construct: Expressed in HEK-293F with a signal peptide that is not specified; In the ELISAs it was biotinylated with EZ-Link NHS-Biotin (CD73-biotin) and captured on streptavidin; in SPR and the enzyme assay it was used as CD73-His; also called CD73-his antigen; CD73-biotin
T2 sequence: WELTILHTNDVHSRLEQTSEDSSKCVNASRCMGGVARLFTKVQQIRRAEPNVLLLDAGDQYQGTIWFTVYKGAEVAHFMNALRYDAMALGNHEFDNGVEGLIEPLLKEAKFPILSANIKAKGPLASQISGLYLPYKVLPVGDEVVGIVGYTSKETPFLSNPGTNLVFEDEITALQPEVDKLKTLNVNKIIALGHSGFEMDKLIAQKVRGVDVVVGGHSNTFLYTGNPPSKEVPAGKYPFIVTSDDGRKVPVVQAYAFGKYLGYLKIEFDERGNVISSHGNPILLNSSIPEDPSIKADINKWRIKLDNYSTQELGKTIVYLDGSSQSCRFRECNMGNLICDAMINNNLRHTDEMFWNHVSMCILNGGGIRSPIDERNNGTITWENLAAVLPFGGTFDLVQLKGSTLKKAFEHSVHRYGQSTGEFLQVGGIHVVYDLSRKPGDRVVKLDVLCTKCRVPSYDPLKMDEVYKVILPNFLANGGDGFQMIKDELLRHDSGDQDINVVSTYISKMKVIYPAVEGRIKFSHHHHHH


Experiments:
[1] = biological target: T1, CD73 protein on the surface of tumor …; test: cell-based or functional assay
[2] = biological target: T2, human CD73-His protein; test: ELISA, biotinylated CD73-His on streptavidin plate
Method: (§1) The ELISA plates were coated with SA protein diluted to 1.5 μg/mL in coating buffer (50 mM carbonate coating buffer, pH 9.6) and incubated overnight at 4° C. The supernatant was discarded, and the plates were washed three times with PBST. Then, 5% skimmed milk powder prepared with PBS was added for blocking and the plates were incubated for 2 h at 37° C. After washing the plates once with PBST, CD73-biotin protein (prepared by biotinylating CD73-His protein according to the EZ-Link NHS-Biotin Reagent instructions) was diluted to 0.5 μg/mL and added at 100 μL/well for incubation at room temperature for 1 h. The plates were washed three times with PBST, and the prepared murine-derived monoclonal antibodies against human CD73 were serially diluted with 1% BSA buffer prepared with PBST and added to the ELISA plates at 100 μl/well. The plates were incubated at 37° C. for 1 h. After washing the plates three times with PBST, HRP-labeled goat anti-mouse IgG secondary antibody was added and the plates were incubated for 30 min at 37° C. After washing the plates three times with PBST, the residual droplets were patted dry on absorbent paper as much as possible. Then, 100 μl of TMB color developing solution was added to each well, and the plates were incubated in the dark at room temperature for 5 min for color development. Subsequently, 50 μl of 2M H₂SO₄ stop solution was added to each well to terminate the substrate reaction. The OD values were read at 450 nm using a multimode microplate reader to analyze the binding ability of the tested antibodies to the target antigen human CD73-His.

[3] = biological target: T2, human CD73-His protein; test: ELISA, biotinylated CD73-His on streptavidin plate; remark: listed apart in the source
Method: as §1
The binding affinity of various humanized antibodies to human CD73-his protein was measured with reference to Example 3.

[4] = biological target: T2, human CD73-His protein; test: cell-based or functional assay

Row | Binder | IC50 (ng/mL), inhibition of CD73 enzyme activity on H1975 cells (AMP/ATP, Cell Titer-Glo) [1] [ng/mL] | EC50 [2] | EC50 [3] [nM] | IC50 (nM), inhibition of enzyme activity of soluble CD73-His (AMP/ATP, Cell Titer-Glo) [4] [nM]
1 | 48A11 (antibody, V domains shown, Murine hybridoma antibody; also called murine-derived antibody 48A11) VH: QVQLQQPGAELVKPGASVKLSCKASGYTFTSYWMHWVKQRPGQGLEWIGEINPSIGRTNYNEKFKSKATLTVDKSSSTAFMQLSSLTSEDSAVYYCARRVYGTMDYWGQGTSVTVSS VL: DIKMTQSPSSMYASLGERVTITCKASQDINSYLSWFQQKPGKSPKTLIYRANIWVDGVPSRFSGSGSGQDYSLTISSLEYEDMGIYYCLQYDELYTFGGGTKLEIK | 17 | 0.0197 µg/mL | – | –
2 | 48A11-ch (antibody, human IgG4 S228P, kappa, V domains shown, Chimeric: murine variable regions spliced with human IgG4 (S228P) and human kappa constant regions; also called chimeric antibody 48A11-ch) VH: QVQLQQPGAELVKPGASVKLSCKASGYTFTSYWMHWVKQRPGQGLEWIGEINPSIGRTNYNEKFKSKATLTVDKSSSTAFMQLSSLTSEDSAVYYCARRVYGTMDYWGQGTSVTVSS VL: DIKMTQSPSSMYASLGERVTITCKASQDINSYLSWFQQKPGKSPKTLIYRANIWVDGVPSRFSGSGSGQDYSLTISSLEYEDMGIYYCLQYDELYTFGGGTKLEIKR | – | 0.067 nM | 0.058 | –
3 | 48A11-HuV23 (antibody, human IgG4, V domains shown, Humanized) VH: QVQLVQSGAEVKKPGASVKVSCKASGYTFTSYWMHWVRQAPGQGLEWIGEINPSIGRTNYNEKFKSRATLTVDKSTSTAYMELSSLRSEDTAVYYCARRVYGTMDYWGQGTLVTVSS VL: DIQMTQSPSSLSASVGDRVTITCKASQDINSYLSWFQQKPGKSPKLLIYRANIWVDGVPSRFSGSGSGQDYTFTISSLQPEDIATYYCLQYDELYTFGQGTKVEIK | – | – | 0.081 | –
4 | 56B10-HuV21 (antibody, human IgG4, V domains shown, Humanized) VH: QVQLVQSGAEVKKPGASVKVSCKTSGYTFTRYYIYWVRQAPGQGLEWIGWIYPGNFNTKYNEKFKGRATLTADTSASTAYMELSSLRSEDTAVYYCARDVYDYAGFAYWGQGTLVTVSS VL: DIQLTQSPSFLSASVGDRVTITCKASQGVATAVAWYQQKPGQSPKLLIYWASTRHTGVPDRFSGSGSGTEFTLTISSLQPEDFATYYCQQYSSYPWTFGQGTKVEIK | – | – | 0.11 | –
5 | 56B10-HuV32 (antibody, human IgG4, V domains shown, Humanized) VH: QVQLQQSGAEVKKPGASVKVSCKASGYTFTRYYIYWVRQRPGQGLEWIGWIYPGNFNTKYNEKFKGRATLTADTSASTAYMELSSLTSEDTAVYYCARDVYDYAGFAYWGQGTLVTVSS VL: DIQLTQSPSFLSASVGDRVTITCKASQGVATAVAWYQQKPGKAPKLLIYWASTRHTGVPSRFSGSGSGTEFTLTISSLQPEDFATYYCQQYSSYPWTFGQGTKVEIK | – | – | 0.105 | –

The next lines start with the values.

Row | IC50 (ng/mL), inhibition of CD73 enzyme activity on H1975 cells (AMP/ATP, Cell Titer-Glo) [1] [ng/mL] | EC50 [2] | EC50 [3] [nM] | IC50 (nM), inhibition of enzyme activity of soluble CD73-His (AMP/ATP, Cell Titer-Glo) [4] [nM] | Binder
6 | – | – | 0.093 | 9.02 | 48A11-HuV22 (antibody, human IgG4, V domains shown, Humanized) VH: QVQLVQSGAEVKKPGASVKVSCKASGYTFTSYWMHWVRQAPGQGLEWIGEINPSIGRTNYNEKFKSRATLTVDKSTSTAYMELSSLRSEDTAVYYCARRVYGTMDYWGQGTLVTVSS VL: DIQMTQSPSSLSASVGDRVTITCKASQDINSYLSWFQQKPGKSPKTLIYRANIWVDGVPSRFSGSGSGQDYTFTISSLQPEDIATYYCLQYDELYTFGQGTKVEIK
7 | 20.7 | 0.0269 µg/mL | – | – | 56B10 (antibody, V domains shown, Murine hybridoma antibody; also called murine-derived antibody 56B10) VH: QVQLQQSGPELVKPGASVRISCKTSGYTFTRYYIYWVKQRPGQGLEWIGWIYPGNFNTKYNEKFKGKATLTADTSSSTAYMQLSSLTSEDSAVYFCARDVYDYAGFAYWGQGTLVTVSA VL: DIVMTQSHRFLSTSVGDRVSITCKASQGVATAVAWYQQKPGQSPKLLIYWASTRHTGVPDRFTGSGSGTDFTLTISNVQSEDLADYFCQQYSSYPWTFGGGTKLEIK
8 | – | 0.09 nM | 0.07 | – | 56B10-ch (antibody, human IgG4 S228P, kappa, V domains shown, Chimeric: murine variable regions spliced with human IgG4 (S228P) and human kappa constant regions; also called chimeric antibody 56B10-ch) VH: QVQLQQSGPELVKPGASVRISCKTSGYTFTRYYIYWVKQRPGQGLEWIGWIYPGNFNTKYNEKFKGKATLTADTSSSTAYMQLSSLTSEDSAVYFCARDVYDYAGFAYWGQGTLVTVSA VL: DIVMTQSHRFLSTSVGDRVSITCKASQGVATAVAWYQQKPGQSPKLLIYWASTRHTGVPDRFTGSGSGTDFTLTISNVQSEDLADYFCQQYSSYPWTFGGGTKLEIKR
9 | – | – | 0.112 | 4.13 | 56B10-HuV33 (antibody, human IgG4, V domains shown, Humanized) VH: QVQLQQSGAEVKKPGASVKVSCKASGYTFTRYYIYWVRQRPGQGLEWIGWIYPGNFNTKYNEKFKGRATLTADTSASTAYMELSSLTSEDTAVYYCARDVYDYAGFAYWGQGTLVTVSS VL: DIQMTQSPSFLSASVGDRVTITCKASQGVATAVAWYQQKPGKSPKLLIYWASTRHTGVPSRFSGSGSGTEFTLTISSLQPEDFATYFCQQYSSYPWTFGQGTKVEIK
10 | – | – | 0.107 | – | 56B10-HuV23 (antibody, human IgG4, V domains shown, Humanized) VH: QVQLVQSGAEVKKPGASVKVSCKTSGYTFTRYYIYWVRQAPGQGLEWIGWIYPGNFNTKYNEKFKGRATLTADTSASTAYMELSSLRSEDTAVYYCARDVYDYAGFAYWGQGTLVTVSS VL: DIQMTQSPSFLSASVGDRVTITCKASQGVATAVAWYQQKPGKSPKLLIYWASTRHTGVPSRFSGSGSGTEFTLTISSLQPEDFATYFCQQYSSYPWTFGQGTKVEIK
